Assay results published in patent US7879338B2, “Vectors and methods for immunization against norovirus using transgenic plants” (Boyce Thompson Institute for Plant Research, priority 2003, dated 2011).

Assays:
[1] = low pH, lyophilized, stored long term at 4° C.; cited from earlier work
mice = test: Oral immunogenicity of tomato sNV110-2 powder versus gavaged iNV VLPs; format: in vivo, mouse
Description: FIGS. 23A-B show the immunologic response of mice to rNV-transgenic tomato. […] Five mice in each group ingested 1.2 g, 1.5 g or 2.3 g of tomato powder mixed with 0.6 volume of water, on days 1, 4, 17, and 20. One group was gavaged with 100 g iNV VLPs each. Nontransgenic tomato powder was fed to a negative control group. […] Standard errors were calculated on the log-transformed titers.
Three doses of tomato sNV110-2 powder (1.5 gm, 2.5 gm, or 5 gm) were provided on days 1, 4, 17, and 20. The actual doses ingested by each mouse were, on average, 1.2, 1.5 and 2.2 gm each feeding, containing 192, 240, and 352 μg rNV/dose, respectively, or 60, 75, and 1101 g VLPs/dose. Nontransgenic tomato TA234 powder (5 gram per mouse per feed) were given to one control group (−), and 100 μg purified iNV VLPs were orally administered by gavage to another control group (+). Serum and fecal antibodies were measured by ELISA, and GMTs were calculated for each group of mice. All pre-immune serum and fecal samples were negative for rNV-specific IgG and IgA, as were control group (−) (titers<20; the lowest dilution tested). […] No significant difference (p=0.05) in primary titers was observed among groups. […] Intestinal antibody responses reached their peaks at 27 dpi with IgA GMTs ranging from 10681 to 19127. […] In contrast, the control i-rNV gavage group had their maximum levels of IgG GMT=826 and IgA GMT=1748, which were 8.2 and 6.2 fold less than the group that ingested 1.2 gram of sNV110-2 powder (p<0.0183). Further, long-term serum antibody responses declined to baseline in 3 months (IgG GMT=58 at 87 dpi).

[2] = day 11, gavage of purified iNV VLPs (100 μg)

B1: iNV VLPs: purified insect cell (baculovirus) derived recombinant Norwalk virus virus-like particles, control reference antigen (protein)
chain: MMMASKDATSSVDGASGAGQLVPEVNASDPLAMDPVAGSSTAVATAGQVNPIDPWIINNFVQAPQGEFTISPNNTPGDVLFDLSLGPHLNPFLLHLSQMYNGWVGNMRVRIMLAGNAFTAGKIIVSCIPPGFGSHNLTIAQATLFPHVIADVRTLDPIEVPLEDVRNVLFHNNDRNQQTMRLVCMLYTPLRTGGGTGDSFVVAGRVMTCPSPDFNFLFLVPPTVEQKTRPFTLPNLPLSSLSNSRAPLPISSMGISPDNVQSVQFQNGRCTLDGRLVGTTPVSLSHVAKIRGTSNGTVINLTELDGTPFHPFEGPAPIGFPDLGGCDWHINMTQFGHSSQTQYDVDTTPDTFVPHLGSIQANGIGSGNYVGVLSWISPPSHPSGSQVDLWKIPNYGSSITEATHLAPSVYPPGFGEVLVFFMSKMPGPGAYNLPCLLPQEYISHLASEQAPTVGEAALLHYVDPDTGRNLGEFKAYPDGFLTCVPNGASSGPQQLPINGVFVFVSWVSRFYQLKPVGTASSARGRLGLRR
- stability [1]: stable
- IgA GMT (mice; [2]): 62
- IgG GMT (mice; [2]): 18
- mice with primary intestinal antibody responses (mice; [2]): 2 of 5
- mice with primary serum antibody responses (mice; [2]): 1 of 5
- maximum IgA GMT (mice; i-rNV gavage control group): 1748
- maximum IgG GMT (mice; i-rNV gavage control group): 826
- long-term IgG GMT (mice; i-rNV gavage group, 87 dpi): 58
- maximum IgA GMT, fold less than group ingesting 1.2 gram sNV110-2 powder (mice; p<0.0183): 6.2 fold
- maximum IgG GMT, fold less than group ingesting 1.2 gram sNV110-2 powder (mice; p<0.0183): 8.2 fold
